Biological target: T1, VEGFR1 (Flt1) on the membrane of HUVECs (human, UniProt P17948 27-1338)
T1 construct: whole, on cells; Endogenous receptor on HUVECs; also called fms-like tyrosine kinase-1
Assay: fluorescence imaging of HUVECs with dye-conjugated cage
Description: HUVECs were spread onto a 48-well plate at 4×10⁴ cells/well and then cultured overnight. The HUVECs were incubated with 50 ng/mL human recombinant rhVEGF₁₆₅ and dye-conjugated fusion protein cage at different concentrations for 15, 30 and 60 minutes at 37° C. The HUVECs were imaged in a […] (Zeiss, Oberkochen, Germany) using FITC.
A maleimide-modified fluorescent dye was conjugated at the thiol of HPC, and the conjugation of the fluorescent dye to the polypeptide was qualitatively identified by SDS-PAGE. The fluorescent dye-conjugated anti-Flt1-HPC4-EBPP[A₁G₄I₁]₆-PEDF 34-mer-EBPP[A₁G₄I₁]₆-HPC5 was visualized by exposure to UV light on SDS-PAGE without gel staining. In FIG. 5 (A) (b), the location of the dye-conjugated polypeptide is compared under UV light with that of a marker in a bright-field mode. The location corresponded to that of the fusion polypeptide on the copper-stained SDS-PAGE gel prior to the dye conjugation (FIG. 5 (A) (a)). The conjugation of the dye to anti-Flt1-HPC4-EBPP[A₁G₄I₁]₆-PEDF 34-mer-EBPP[A₁G₄I₁]₆-HPC5 was confirmed from the fluorescence spectrum. […] HUVECs were spread onto a […] plate and then cultured overnight. The HUVECs were incubated with 1 μM or 10 μM dye-conjugated polypeptide for 15, 30 or 60 minutes. […]

T1 sequence (P17948 27-1338): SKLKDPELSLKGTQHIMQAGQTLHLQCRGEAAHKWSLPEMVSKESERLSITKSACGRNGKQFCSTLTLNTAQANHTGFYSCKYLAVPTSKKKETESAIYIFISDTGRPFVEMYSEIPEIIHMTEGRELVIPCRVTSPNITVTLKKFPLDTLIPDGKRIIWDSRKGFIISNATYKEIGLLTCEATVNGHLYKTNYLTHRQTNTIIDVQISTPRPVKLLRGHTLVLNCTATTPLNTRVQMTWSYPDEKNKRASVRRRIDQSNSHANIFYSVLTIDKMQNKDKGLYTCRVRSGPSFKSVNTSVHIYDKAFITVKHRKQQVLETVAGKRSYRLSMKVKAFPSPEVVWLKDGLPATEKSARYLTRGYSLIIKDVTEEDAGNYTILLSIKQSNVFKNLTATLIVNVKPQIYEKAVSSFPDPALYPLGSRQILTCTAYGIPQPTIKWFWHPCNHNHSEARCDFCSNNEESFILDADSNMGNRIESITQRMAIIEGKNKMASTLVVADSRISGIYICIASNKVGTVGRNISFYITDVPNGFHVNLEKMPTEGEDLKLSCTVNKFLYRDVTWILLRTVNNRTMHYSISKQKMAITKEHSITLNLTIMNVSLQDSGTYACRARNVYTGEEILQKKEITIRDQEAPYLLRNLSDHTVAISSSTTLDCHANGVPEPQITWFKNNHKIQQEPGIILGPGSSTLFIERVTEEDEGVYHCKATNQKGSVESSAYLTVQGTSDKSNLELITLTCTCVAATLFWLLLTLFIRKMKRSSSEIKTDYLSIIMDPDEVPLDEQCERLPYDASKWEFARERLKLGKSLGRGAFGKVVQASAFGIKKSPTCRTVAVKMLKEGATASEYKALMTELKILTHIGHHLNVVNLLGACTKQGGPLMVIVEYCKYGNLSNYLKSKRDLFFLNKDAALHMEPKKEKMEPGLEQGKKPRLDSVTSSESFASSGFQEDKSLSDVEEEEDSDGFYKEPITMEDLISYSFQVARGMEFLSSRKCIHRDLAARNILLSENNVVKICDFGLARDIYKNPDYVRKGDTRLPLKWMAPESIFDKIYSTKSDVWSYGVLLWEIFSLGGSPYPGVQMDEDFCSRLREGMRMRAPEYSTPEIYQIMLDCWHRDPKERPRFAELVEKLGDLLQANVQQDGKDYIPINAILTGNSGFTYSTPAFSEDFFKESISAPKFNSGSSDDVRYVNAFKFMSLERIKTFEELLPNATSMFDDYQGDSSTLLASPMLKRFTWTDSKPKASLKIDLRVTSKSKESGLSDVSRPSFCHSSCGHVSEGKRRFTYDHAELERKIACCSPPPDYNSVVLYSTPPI

B1: fluorescent dye-conjugated anti-Flt1-HPC4-EBPP[A1G4I1]6-PEDF 34-mer-EBPP[A1G4I1]6-HPC5 (designed binder)
chain: GNQWFISSQIRQNYSTDVEAAVNSLVNLYLQASYTYLSLGFYFDRDDVALEGVSHFFRELAEEKREGYERLLKMQNQRGGRALFQDIKKPAEDEWGKTPDAMKAAMALEKKLNQALLDLHALGSARTDPHLCDFLETHFLDEEVKLIKKMGDHLTNLHRLGGVPAGGVPAAGVPAGGVPAGGVPAIGVPAGGVPAGGVPAAGVPAGGVPAGGVPAIGVPAGGVPAGGVPAAGVPAGGVPAGGVPAIGVPAGGVPAGGVPAAGVPAGGVPAGGVPAIGVPAGGVPAGGVPAAGVPAGGVPAGGVPAIGVPAGGVPAGGVPAAGVPAGGVPAGGVPAIGVPAGGDPFFKVPVNKLAAAVSNFGYDLYRVRSSTSPTTNVPAGGVPAAGVPAGGVPAGGVPAIGVPAGGVPAGGVPAAGVPAGGVPAGGVPAIGVPAGGVPAGGVPAAGVPAGGVPAGGVPAIGVPAGGVPAGGVPAAGVPAGGVPAGGVPAIGVPAGGVPAGGVPAAGVPAGGVPAGGVPAIGVPAGGVPAGGVPAAGVPAGGVPAGGVPAIGVPAGGPEAGLGEYLFERLTLKHD
modifications: Alexa Fluor 488 C5 maleimide conjugated at cysteine (thiol of HPC) via thiol-maleimide reaction
notes: also called dye-conjugated fusion protein cage; dye-conjugated polypeptide
- binding result: binds

— US20220331453A1 (INDUSTRY UNIVERSITY COOPERATION FOUNDATION HANYANG …, published 2022)
